The record followed here is US20160193329A1.

This assay addresses Toll-like Receptor 5 (human) (UniProt O60602). The experiment in a line: cell-based or functional assay.

B1: STF2.HA1 (SI) (protein)
chain: AQVINTNSLSLLTQNNLNKSQSALGTAIERLSSGLRINSAKDDAAGQAIANRFTANIKGLTQASRNANDGISIAQTTEGALNEINNNLQRVRELAVQSANSTNSQSDLDSIQAEITQRLNEIDRVSGQTQFNGVKVLAQDNTLTIQVGANDGETIDIDLKQINSQTLGLDSLNVQKAYDVKDTAVTTKAYANNGTTLDVSGLDDAAIKAATGGTNGTASVTGGAVKFDADNNKYFVTIGGFTGADAAKNGDYEVNVATDGTVTLAAGATKTTMPAGATTKTEVQELKDTPAVVSADAKNALIAGGVDATDANGAELVKMSYTDKNGKTIEGGYALKAGDKYYAADYDEATGAIKAKTTSYTAADGTTKTAANQLGGVDGKTEVVTIDGKTYNASKAAGHDFKAQPELAEAAAKTTENPLQKIDAALAQVDALRSDLGAVQNRFNSAITNLGNTVNNLSEARSRIEDSDYATEVSNMSRAQILQQAGTSVLAQANQVPQNVLSLLAKGIAPLQLGNCSVAGWILGNPECELLISRESWSYIVEKPNPENGTCYPGHFADYEELREQLSSVSSFERFEIFPKESSWPNHTTTGVSASCSHNGESSFYKNLLWLTGKNGLYPNLSKSYANNKEKEVLVLWGVHHPPNIGDQRALYHKENAYVSVVSSHYSRKFTPEIAKRPKVRDQEGRINYYWTLLEPGDTIIFEANGNLIAPRYAFALSRGFGSGIINS
Regarding B1, the IL-8, Mean Result (ng/nL), HEK 293 cells, lot 1 (reference), well 1 was 635 ng/nL; the IL-8, Mean Result (ng/nL), HEK 293 cells, lot 1 (reference), well 2 worked out at 797; the IL-8, Mean Result (ng/nL), HEK 293 cells, lot 1 (reference), well 3 is 1070; the IL-8, Mean Result (ng/nL), HEK 293 cells, lot 1 (reference), well 4 stood at 1230. Besides, the IL-8, Mean Result (ng/nL), HEK 293 cells, lot 1 (reference), well 5 is 1360; the IL-8, Mean Result (ng/nL), HEK 293 cells, lot 1 (reference), well 6 stood at 1540; the IL-8, Mean Result (ng/nL), HEK 293 cells, lot 2, well 1 is 1460 ng/nL; the IL-8, Mean Result (ng/nL), HEK 293 cells, lot 2, well 2 worked out at 1590. The molecule further gave an IL-8, Mean Result (ng/nL), HEK 293 cells, lot 2, well 3 of 1610; an IL-8, Mean Result (ng/nL), HEK 293 cells, lot 2, well 4 of 1300; an IL-8, Mean Result (ng/nL), HEK 293 cells, lot 2, well 5 of 1380; an IL-8, Mean Result (ng/nL), HEK 293 cells, lot 2, well 6 of 1090. For the same molecule, the IL-8, Mean of all wells, HEK 293 cells, lot 1 (reference) stood at 1110; the IL-8, Mean of all wells, HEK 293 cells, lot 2 came out at 1410; the T/C ratio (IL-8 of lot 2 against the reference lot 1 at about 278 ng/ml) stood at 1.3.
